Laboratory results: US20140235490A1

Target: Firefly luciferase fragment FFL (265-550) (Photinus pyralis) [luciferase: P08659]
Assay: cell-based or functional assay

Chain of Firefly luciferase fragment FFL (265-550) (Photinus pyralis) [luciferase: P08659] (P08659 265-550): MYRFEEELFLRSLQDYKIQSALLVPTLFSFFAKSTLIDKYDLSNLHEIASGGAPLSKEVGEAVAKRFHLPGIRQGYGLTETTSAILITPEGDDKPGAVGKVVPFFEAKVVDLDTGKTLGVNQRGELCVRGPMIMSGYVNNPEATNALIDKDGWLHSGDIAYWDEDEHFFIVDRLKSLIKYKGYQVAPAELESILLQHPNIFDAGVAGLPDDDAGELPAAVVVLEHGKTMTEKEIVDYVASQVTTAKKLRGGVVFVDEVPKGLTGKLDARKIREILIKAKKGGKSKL
Chain of Firefly luciferase fragment FFL (1-478) (P08659 1-478): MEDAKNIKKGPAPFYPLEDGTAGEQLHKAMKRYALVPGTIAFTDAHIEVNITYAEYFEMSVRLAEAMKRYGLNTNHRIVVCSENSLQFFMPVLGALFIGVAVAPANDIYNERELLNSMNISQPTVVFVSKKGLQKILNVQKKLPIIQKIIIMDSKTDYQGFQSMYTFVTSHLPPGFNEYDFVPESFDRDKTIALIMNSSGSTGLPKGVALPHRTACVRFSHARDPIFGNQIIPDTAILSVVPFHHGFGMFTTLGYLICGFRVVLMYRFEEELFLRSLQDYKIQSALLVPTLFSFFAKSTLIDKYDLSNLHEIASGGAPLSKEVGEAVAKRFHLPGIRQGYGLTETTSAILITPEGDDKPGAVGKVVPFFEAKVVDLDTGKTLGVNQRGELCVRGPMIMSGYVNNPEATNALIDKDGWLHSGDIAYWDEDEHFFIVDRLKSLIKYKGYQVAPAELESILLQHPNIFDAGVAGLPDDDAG

Q: How did the luciferase activity after recombination of the fragments turn out when “Firefly luciferase fragment FFL (1-478) (from UniProt P08659 1-478)” was run?
A: < 4%
